The source of these data is US20190225669A1 (ACCELERON PHARMA, published 2019).

Like-named read-outs stand apart in the source and are kept apart here.

For test [1], the target named is T1, BMP15 (UniProt O95972 268-392).
T1 construct: also called GDF9b
T1 sequence (looked up): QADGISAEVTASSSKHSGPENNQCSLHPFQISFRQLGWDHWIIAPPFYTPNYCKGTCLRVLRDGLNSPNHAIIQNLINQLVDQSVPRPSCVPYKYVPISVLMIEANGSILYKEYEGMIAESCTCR
Briefly: Biacore SPR. On the procedure: A Biacore™-based binding assay was used to compare ligand binding selectivity of the BMPRII-Fc:ALK2-Fc heterodimeric complex described above with that of BMPRII-Fc and ALK2-Fc homodimeric complexes. […] Ligands were injected and allowed to flow over the captured receptor protein.
On the technique in general: Surface plasmon resonance follows binding to a sensor surface in real time, without labels.

The target in test [2] is T2, BMP10 (UniProt O95393 317-424).
T2 sequence (looked up): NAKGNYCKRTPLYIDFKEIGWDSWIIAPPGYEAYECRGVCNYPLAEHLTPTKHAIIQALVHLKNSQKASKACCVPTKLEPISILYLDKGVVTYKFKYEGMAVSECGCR
Description: Biacore SPR. As for the experimental part: (§1) Ligands were injected and allowed to flow over the captured receptor protein.

Test [3] addresses T3, activin B (UniProt P09529 293-407).
T3 sequence (looked up): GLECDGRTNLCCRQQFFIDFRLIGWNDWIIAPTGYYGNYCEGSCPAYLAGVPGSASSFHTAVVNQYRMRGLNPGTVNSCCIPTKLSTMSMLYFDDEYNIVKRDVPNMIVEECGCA
Briefly: Biacore SPR. On the procedure: as §1

Test [4] deals with T4, GDF3 (UniProt Q9NR23 251-364).
T4 sequence (looked up): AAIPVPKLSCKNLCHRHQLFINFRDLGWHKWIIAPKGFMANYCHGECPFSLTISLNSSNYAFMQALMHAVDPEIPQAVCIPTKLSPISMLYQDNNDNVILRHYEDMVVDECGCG
Description: Biacore SPR. As for the experimental part:
as §1

Test [5] concerns the target T5, activin A (UniProt P08476 311-426).
T5 sequence (looked up): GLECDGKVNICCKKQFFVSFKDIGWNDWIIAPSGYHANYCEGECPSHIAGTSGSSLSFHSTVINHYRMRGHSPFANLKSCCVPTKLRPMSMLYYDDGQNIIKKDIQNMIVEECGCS
Description: Biacore SPR. As for the experimental part:
as §1

The target of test [6] is T6, GDF11 (UniProt O95390 299-407).
T6 construct: also called BMP11
T6 sequence (looked up): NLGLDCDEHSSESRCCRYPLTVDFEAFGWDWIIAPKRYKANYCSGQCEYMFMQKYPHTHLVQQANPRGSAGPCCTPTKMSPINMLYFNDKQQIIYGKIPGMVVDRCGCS
Description: Biacore SPR. On the procedure:
as §1

The target of test [7] is T7, GDF6 (UniProt Q6KF10 336-455, limits assumed).
T7 construct: also called BMP13
T7 sequence (looked up): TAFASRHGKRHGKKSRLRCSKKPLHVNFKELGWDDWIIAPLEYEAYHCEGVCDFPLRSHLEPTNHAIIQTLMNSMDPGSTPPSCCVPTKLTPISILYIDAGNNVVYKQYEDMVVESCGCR
Briefly: Biacore SPR. As for the experimental part:
as §1

The target in test [8] is T8, GDF8 (UniProt O14793 267-375).
T8 construct: also called myostatin
T8 sequence (looked up): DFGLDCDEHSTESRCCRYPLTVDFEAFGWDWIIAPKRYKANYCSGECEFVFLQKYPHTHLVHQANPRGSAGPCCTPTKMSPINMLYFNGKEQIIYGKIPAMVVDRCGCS
Description: Biacore SPR. As for the experimental part: as §1

Test [9] concerns the target T9, BMP5 (UniProt P22003 317-454, limits assumed).
T9 sequence (looked up): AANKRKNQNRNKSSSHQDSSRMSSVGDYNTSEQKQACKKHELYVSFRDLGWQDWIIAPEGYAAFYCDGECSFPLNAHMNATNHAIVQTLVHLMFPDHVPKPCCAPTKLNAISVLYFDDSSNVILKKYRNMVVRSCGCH
Briefly: Biacore SPR. On the procedure: as §1

Test [10] has as its target T10, BMP9 (UniProt Q9UK05 320-429).
T10 construct: also called GDF2
T10 sequence (looked up): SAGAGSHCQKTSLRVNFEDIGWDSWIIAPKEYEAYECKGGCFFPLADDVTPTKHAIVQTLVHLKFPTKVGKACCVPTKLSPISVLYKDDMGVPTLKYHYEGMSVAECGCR
Description: Biacore SPR; kinetics indeterminate (transient). On the procedure: as §1

Test [11] concerns the target T2, BMP10. Description: Biacore SPR. As for the experimental part:
as §1
This is another data set of the same source.

In test [12] the target is T3, activin B. Description: Biacore SPR. As for the experimental part:
as §1
This is another data set of the same source.

Test [13] concerns the target T11, BMP6 (UniProt P22004 382-513, limits assumed).
T11 sequence (looked up): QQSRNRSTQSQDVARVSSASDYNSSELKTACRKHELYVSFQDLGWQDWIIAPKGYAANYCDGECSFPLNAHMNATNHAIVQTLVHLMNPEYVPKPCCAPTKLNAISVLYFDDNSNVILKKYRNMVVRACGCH
Briefly: Biacore SPR. As for the experimental part: as §1

Test [14] deals with T4, GDF3. Briefly: Biacore SPR. On the procedure: as §1
This is another data set of the same source.

Test [15] has as its target T5, activin A. Description: Biacore SPR. As for the experimental part: as §1
This is another data set of the same source.

The target of test [16] is T6, GDF11. Description: Biacore SPR. On the procedure:
as §1
The source holds these as a separate data set.

Test [17] addresses T8, GDF8. Briefly: Biacore SPR. On the procedure: as §1
The source holds these as a separate data set.

For test [18], the target named is T9, BMP5. Description: Biacore SPR. As for the experimental part: as §1
The source holds these as a separate data set.

The target of test [19] is T2, BMP10. Description: Biacore SPR. On the procedure:
as §1
This is another data set of the same source.

Test [20] addresses T3, activin B. Description: Biacore SPR. As for the experimental part:
as §1
The source holds these as a separate data set.

Test [21] has as its target T11, BMP6. Description: Biacore SPR. On the procedure:
as §1
This is another data set of the same source.

Test [22] deals with T4, GDF3. Briefly: Biacore SPR. As for the experimental part: as §1
This is another data set of the same source.

Test [23] concerns the target T5, activin A. Description: Biacore SPR. As for the experimental part:
as §1
The source holds these as a separate data set.

The target in test [24] is T6, GDF11. Description: Biacore SPR. On the procedure: as §1
This is another data set of the same source.

In test [25] the target is T8, GDF8. Description: Biacore SPR. As for the experimental part:
as §1
This is another data set of the same source.

B1: ALK2-Fc homodimer (Fc fusion, UniProt Q04771 21-123, looked up, not shown: a dimerising Fc or GST)
chain: MEDEKPKVNPKLYMCVCEGLSCGNEDHCEGQQCFSSLSINDGFHVYQKGCFQVYEQGKMTCKTPPSPGQAVECCQGDWCNRNITAQLPTKGKSFPGTQNFHLE
notes: extracellular domain
For B1, the binding result in [1], in test [2], in test [3], in [4], in test [5] and in [6] was “no binding” each time. Besides, the binding result in test [7], in test [8] and in test [9] was “no binding” in each case.

B2: ActRIIB-Fc:ALK7-Fc heterodimer (Fc fusion)
chain 1: GRGEAETRECIYYNANWELERTNQSGLERCEGEQDKRLHCYASWRNSSGTIELVKKGCWLDDFNCYDRQECVATEENPQVYFCCCEGNFCNERFTHLPEAGGPEVTYEPPPTAPTGGGTHTCPPCPAPELLGGPSVFLFPPKPKDTLMISRTPEVTCVVVDVSHEDPEVKFNWYVDGVEVHNAKTKPREEQYNSTYRVVSVLTVLHQDWLNGKEYKCKVSNKALPAPIEKTISKAKGQPREPQVYTLPPSRKEMTKNQVSLTCLVKGFYPSDIAVEWESNGQPENNYKTTPPVLKSDGSFFLYSKLTVDKSRWQQGNVFSCSVMHEALHNHYTQKSLSLSPGK
chain 2: GLKCVCLLCDSSNFTCQTEGACWASVMLTNGKEQVIKSCVSLPELNAQVFCHSSNNVTKTECCFTDFCNNITLHLPTASPNAPKLGPMETGGGTHTCPPCPAPELLGGPSVFLFPPKPKDTLMISRTPEVTCVVVDVSHEDPEVKFNWYVDGVEVHNAKTKPREEQYNSTYRVVSVLTVLHQDWLNGKEYKCKVSNKALPAPIEKTISKAKGQPREPQVYTLPPSREEMTKNQVSLTCLVKGFYPSDIAVEWESNGQPENNYDTTPPVLDSDGSFFLYSDLTVDKSRWQQGNVFSCSVMHEALHNHYTQKSLSLSPG
notes: C-terminal Lys optional; also called ActRIIB-Fc:ALK7 heterodimer
Broadly, the Kd is the free concentration of one partner at which half of the binding sites on the other are occupied at equilibrium, for simple one-to-one binding. The term koff denotes a measure of how fast the partners let go of each other. Low values mean a long-lived complex, high ones a short-lived complex. In general, kon refers to the rate constant with which the complex forms. Low readings indicate slower complex formation, high ones faster complex formation. Regarding B2, the dissociation constant (Kd) in test [10] was above 1.4 nM; in [11], 0.19 nM; in test [12], 0.017 nM; in [13], 5.3 nM; in test [14] it was 4.5 nM; in test [15] it was 0.043 nM. Further, the dissociation constant Kd in test [16] came out at 8 pM; in test [17], 0.27 nM; in test [18] it was 57 nM. Further, the off-rate constant (koff) in [11] is 0.0028 s⁻¹; in test [12], 0.0002 s⁻¹; in test [13] it was 0.0063 s⁻¹; in [14], 0.01 s⁻¹; in test [15], 0.0019 s⁻¹; in [16], 0.00075 s⁻¹. The koff in test [17] came out at 0.001 s⁻¹; in [18] it was 0.0085 s⁻¹. Further, the kon in test [11] stood at 1.5e+07 M⁻¹ s⁻¹; in [12] it was 1.2e+07 M⁻¹ s⁻¹; in [13], 1.2e+06 M⁻¹ s⁻¹; in test [14], 2.3e+06 M⁻¹ s⁻¹; in test [15], 4.4e+07 M⁻¹ s⁻¹; in [16], 9.5e+07 M⁻¹ s⁻¹. For the same molecule, the values for the kon in [17] and in [18] were 3.7e+06 M⁻¹ s⁻¹ and 150000 M⁻¹ s⁻¹, respectively.

B3: ActRIIB-Fc:ALK5-Fc heterodimer (Fc fusion)
chain 1: B2 chain 1
chain 2: ALLPGATALQCFCHLCTKDNFTCVTDGLCFVSVTETTDKVIHNSMCIAEIDLIPRDRPFVCAPSSKTGSVTTTYCCNQDHCNKIELPTTVKSSPGLGPVETGGGTHTCPPCPAPELLGGPSVFLFPPKPKDTLMISRTPEVTCVVVDVSHEDPEVKFNWYVDGVEVHNAKTKPREEQYNSTYRVVSVLTVLHQDWLNGKEYKCKVSNKALPAPIEKTISKAKGQPREPQVYTLPPSREEMTKNQVSLTCLVKGFYPSDIAVEWESNGQPENNYDTTPPVLDSDGSFFLYSDLTVDKSRWQQGNVFSCSVMHEALHNHYTQKSLSLSPG
notes: C-terminal Lys optional; also called ActRIIB-Fc:ALK5-Fc heterodimeric complex
With B3, the Kd in [10] was above 6.6 nM; in test [19], 0.15 nM; in [20], 0.079 nM; in test [21], 1.7 nM; in test [22] it was 8.5 nM; in test [23], 0.046 nM. For the same molecule, the Kd stood at 0.2 nM in [24] and 0.49 nM in test [25]. Also, the koff turned out to be 0.0022 s⁻¹ in test [19]; 0.00031 s⁻¹ in [20]; 0.015 s⁻¹ in [21]; 0.0097 s⁻¹ in test [22]; 0.0016 s⁻¹ in [23]; 0.00046 s⁻¹ in [24]. The molecule further showed a koff in [25] of 0.00052 s⁻¹. The kon in test [19] amounted to 2.3e+07 M⁻¹ s⁻¹; in test [20], 3.9e+06 M⁻¹ s⁻¹; in [21] it was 9.3e+06 M⁻¹ s⁻¹; in [22] it was 1.1e+06 M⁻¹ s⁻¹; in test [23], 3.6e+07 M⁻¹ s⁻¹; in test [24], 2.3e+06 M⁻¹ s⁻¹. The same molecule came in with a kon in [25] of 1.1e+06 M⁻¹ s⁻¹.
